Molecular target: T1, talin (Homo sapiens (Human), UniProt Q9Y490 1-2541)
T1 construct: Endogenous talin of HEK293T (and other) cells, detected with anti-talin antibody; also called talin (endogenous, in cell lysates)
Assay: immunoprecipitation of talin from HEK293T cells overexpressing the kinase

T1 sequence (Q9Y490 other isoform, or with tags, fused parts or gaps limits assumed): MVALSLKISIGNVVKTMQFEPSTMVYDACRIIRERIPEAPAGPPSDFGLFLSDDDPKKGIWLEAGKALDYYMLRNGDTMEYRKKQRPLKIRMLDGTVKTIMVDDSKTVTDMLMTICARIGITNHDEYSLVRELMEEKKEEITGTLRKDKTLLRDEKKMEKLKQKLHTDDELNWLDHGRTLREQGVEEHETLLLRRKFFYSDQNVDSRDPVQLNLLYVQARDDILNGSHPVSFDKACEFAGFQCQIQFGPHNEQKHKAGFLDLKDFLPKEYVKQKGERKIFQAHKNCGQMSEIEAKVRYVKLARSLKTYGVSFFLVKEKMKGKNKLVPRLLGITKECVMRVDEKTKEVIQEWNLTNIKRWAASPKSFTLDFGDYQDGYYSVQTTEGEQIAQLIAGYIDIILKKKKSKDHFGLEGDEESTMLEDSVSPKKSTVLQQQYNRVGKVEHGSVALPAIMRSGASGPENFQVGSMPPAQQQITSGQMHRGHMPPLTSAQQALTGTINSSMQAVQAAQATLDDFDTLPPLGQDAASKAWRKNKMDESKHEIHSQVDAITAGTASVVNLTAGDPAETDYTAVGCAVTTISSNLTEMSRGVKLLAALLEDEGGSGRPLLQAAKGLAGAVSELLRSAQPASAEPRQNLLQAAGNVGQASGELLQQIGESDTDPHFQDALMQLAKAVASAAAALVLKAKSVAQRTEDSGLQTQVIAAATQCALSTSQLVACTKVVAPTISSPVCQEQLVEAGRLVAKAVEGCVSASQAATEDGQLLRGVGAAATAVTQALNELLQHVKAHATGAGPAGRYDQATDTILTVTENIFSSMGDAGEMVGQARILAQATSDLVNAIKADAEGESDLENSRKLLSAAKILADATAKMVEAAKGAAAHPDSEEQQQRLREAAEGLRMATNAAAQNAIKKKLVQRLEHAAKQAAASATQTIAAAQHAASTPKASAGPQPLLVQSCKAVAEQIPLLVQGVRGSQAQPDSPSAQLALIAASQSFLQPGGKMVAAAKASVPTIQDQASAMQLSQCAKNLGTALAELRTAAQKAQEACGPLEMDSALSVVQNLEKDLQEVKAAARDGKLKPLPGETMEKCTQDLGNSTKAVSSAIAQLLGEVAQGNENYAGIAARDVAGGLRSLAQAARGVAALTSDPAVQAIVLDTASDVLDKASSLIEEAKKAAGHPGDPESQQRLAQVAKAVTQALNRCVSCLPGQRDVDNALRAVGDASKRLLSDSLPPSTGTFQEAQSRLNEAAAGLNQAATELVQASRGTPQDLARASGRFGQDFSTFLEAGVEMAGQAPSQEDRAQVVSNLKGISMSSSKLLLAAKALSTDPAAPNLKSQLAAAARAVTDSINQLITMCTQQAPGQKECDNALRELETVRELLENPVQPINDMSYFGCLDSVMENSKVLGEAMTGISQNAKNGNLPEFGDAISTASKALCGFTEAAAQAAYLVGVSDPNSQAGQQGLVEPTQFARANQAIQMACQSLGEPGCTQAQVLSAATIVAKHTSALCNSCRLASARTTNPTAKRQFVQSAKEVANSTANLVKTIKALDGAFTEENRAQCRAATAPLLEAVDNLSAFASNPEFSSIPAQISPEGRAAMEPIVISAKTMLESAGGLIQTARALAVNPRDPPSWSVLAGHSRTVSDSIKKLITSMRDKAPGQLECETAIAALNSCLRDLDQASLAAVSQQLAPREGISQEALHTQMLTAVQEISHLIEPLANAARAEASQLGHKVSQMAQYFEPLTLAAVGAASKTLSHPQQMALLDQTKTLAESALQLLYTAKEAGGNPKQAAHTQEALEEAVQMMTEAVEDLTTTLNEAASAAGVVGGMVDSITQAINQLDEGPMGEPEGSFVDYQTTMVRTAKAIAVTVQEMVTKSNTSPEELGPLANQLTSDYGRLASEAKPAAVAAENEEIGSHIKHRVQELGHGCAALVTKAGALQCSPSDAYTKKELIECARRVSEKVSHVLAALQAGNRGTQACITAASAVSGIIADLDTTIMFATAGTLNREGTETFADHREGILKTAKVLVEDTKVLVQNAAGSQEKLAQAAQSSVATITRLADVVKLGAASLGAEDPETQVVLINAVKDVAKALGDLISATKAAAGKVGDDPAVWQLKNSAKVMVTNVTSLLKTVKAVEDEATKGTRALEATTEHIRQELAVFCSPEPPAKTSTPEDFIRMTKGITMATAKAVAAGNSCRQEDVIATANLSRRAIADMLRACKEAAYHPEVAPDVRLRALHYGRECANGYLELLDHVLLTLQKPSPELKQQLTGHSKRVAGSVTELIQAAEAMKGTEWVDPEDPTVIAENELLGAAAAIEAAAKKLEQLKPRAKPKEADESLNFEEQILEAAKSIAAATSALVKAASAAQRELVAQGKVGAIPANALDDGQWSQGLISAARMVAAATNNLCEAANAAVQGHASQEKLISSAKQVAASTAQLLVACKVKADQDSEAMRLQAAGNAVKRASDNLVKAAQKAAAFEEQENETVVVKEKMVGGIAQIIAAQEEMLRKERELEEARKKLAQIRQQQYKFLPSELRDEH

B1: Haemagglutinin (HA)-tagged PIPKIγ635 (enzyme, not shown: small tags and cut ends)
chain: MELEVPDEAESAEAGAVTAEAAWSAESGAAAGMTQKKAGLAEAPLVTGQPGPGHGKKLGHRGVDASGETTYKKTTSSTLKGAIQLGIGYTVGNLSSKPERDVLMQDFYVMESIFFPSEGSNFTPAHHFQDFRFKTYAPVAFRYFRELFGIRPDDYLYSLCNEPLIELSNPGASGSVFYVTSDDEFIIKTVMHKEAEFLQKLLPGYYMNLNQNPRTLLPKFYGLYCVQSGGKNIRVVVMNNVLPRVVKMHLKFDLKGSTYKRRASKKEKEKSLPTYKDLDFMQDMPEGLLLDSDTFGALVKTLQRDCLVLESFKIMDYSLLLGVHNIDQQERERQAEGAQSKADEKRPVAQKALYSTAMESIQGGAARGEAIETDDTMGGIPAVNGRGERLLLHIGIIDILQSYRFIKKLEHTWKALVHDGDTVSVHRPSFYAERFFKFMSSTVFRKSSSLKSSPSKKGRGALLAVKPLGPTAAFSASQIPSEREDVQYDLRGARSYPTLEDEGRPDLLPCTPPSFEEATTASIATTLSSTSLSIPERSPSDTSEQPRYRRRTQSSGQDGRPQEEPHAEDLQKITVQVEPVCGVGVVPKEEGAGVEVPPCGASAAASVEIDAASQASEPASQASDEEDAPSTDIYF
Does B1 bind?
Result: no binding
